Source: the supplement of paper PMC10065799, “High-throughput profiling of sequence recognition by tyrosine kinases and SH2 domains using bacterial peptide display” (eLife, 2023)

Legend:
[1] = target: c-Src SH2; assay: SH2 binding enrichment of the phosphorylated peptide, bacterial display (enrichment ratio); higher = better substrate or ligand; peptides without Tyr show the background
[2] = target: Grb2 SH2 (UniProt P62993); assay: as above
[3] = target: SHP2-C SH2; assay: as above
[4] = test system: Fer (mouse); assay: phosphorylation enrichment, bacterial display (enrichment ratio); higher = better substrate or ligand; peptides without Tyr show the background
[5] = test system: c-Abl (mouse); assay: as above
[6] = target: EPHB1 (UniProt P54762); assay: as above
[7] = target: Hck (UniProt P08631); assay: as above
[8] = target: MERTK (UniProt Q12866); assay: as above
[9] = target: FGFR3 (UniProt P22607); assay: as above
[10] = target: EPHB2 (UniProt P29323); assay: as above
[11] = target: FGFR1 (UniProt P11362); assay: as above
[12] = target: Jak2 (UniProt O60674); assay: as above
[13] = target: Fes (UniProt P07332); assay: as above
[14] = test system: c-Src; assay: as above
[15] = target: Fyn (UniProt P06241); assay: as above
[16] = test system: AncSZ; assay: as above
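For SH2 binding enrichment of the phosphorylated peptide, bacterial display in this document: peptide library displayed on the E. coli surface as eCPX fusions, selected cells deep-sequenced, score is each peptide's frequency after selection divided by its frequency in the input.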
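For phosphorylation enrichment, bacterial display in this document: 11-residue human phosphosite peptides and single-mutation variants displayed on the E. coli surface, counted by deep sequencing, each peptide's frequency after selection divided by its frequency in the unselected input library; frequency after pTyr selection over input frequency; kinase dosed for 20-30% of maximal phosphorylation in three min.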

Chain of EPHB1 (P54762 whole entry, looked up): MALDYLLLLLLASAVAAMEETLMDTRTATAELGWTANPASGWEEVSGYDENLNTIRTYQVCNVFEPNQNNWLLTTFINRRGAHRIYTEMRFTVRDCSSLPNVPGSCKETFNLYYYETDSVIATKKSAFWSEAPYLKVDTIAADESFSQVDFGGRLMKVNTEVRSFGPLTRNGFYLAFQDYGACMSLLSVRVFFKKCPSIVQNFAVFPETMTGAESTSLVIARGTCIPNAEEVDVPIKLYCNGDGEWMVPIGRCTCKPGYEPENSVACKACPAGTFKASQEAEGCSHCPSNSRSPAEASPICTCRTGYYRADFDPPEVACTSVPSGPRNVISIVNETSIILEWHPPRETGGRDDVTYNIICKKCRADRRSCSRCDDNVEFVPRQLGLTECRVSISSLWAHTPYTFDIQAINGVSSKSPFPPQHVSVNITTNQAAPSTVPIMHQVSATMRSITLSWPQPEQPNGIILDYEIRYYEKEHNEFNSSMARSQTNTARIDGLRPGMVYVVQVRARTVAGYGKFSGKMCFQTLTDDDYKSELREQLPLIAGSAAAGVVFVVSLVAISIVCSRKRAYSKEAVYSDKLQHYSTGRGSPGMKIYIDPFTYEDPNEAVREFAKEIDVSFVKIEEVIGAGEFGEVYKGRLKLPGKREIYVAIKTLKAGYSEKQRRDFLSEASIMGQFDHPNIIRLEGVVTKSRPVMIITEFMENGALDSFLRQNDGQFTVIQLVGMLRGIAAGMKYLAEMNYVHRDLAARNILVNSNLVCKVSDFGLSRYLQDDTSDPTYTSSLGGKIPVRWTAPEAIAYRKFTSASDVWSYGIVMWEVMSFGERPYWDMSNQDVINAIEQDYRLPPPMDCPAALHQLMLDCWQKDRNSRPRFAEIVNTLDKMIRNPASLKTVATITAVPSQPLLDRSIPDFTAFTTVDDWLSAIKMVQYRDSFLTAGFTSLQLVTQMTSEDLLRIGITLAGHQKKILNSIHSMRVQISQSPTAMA
Chain of Jak2 (O60674 whole entry, looked up): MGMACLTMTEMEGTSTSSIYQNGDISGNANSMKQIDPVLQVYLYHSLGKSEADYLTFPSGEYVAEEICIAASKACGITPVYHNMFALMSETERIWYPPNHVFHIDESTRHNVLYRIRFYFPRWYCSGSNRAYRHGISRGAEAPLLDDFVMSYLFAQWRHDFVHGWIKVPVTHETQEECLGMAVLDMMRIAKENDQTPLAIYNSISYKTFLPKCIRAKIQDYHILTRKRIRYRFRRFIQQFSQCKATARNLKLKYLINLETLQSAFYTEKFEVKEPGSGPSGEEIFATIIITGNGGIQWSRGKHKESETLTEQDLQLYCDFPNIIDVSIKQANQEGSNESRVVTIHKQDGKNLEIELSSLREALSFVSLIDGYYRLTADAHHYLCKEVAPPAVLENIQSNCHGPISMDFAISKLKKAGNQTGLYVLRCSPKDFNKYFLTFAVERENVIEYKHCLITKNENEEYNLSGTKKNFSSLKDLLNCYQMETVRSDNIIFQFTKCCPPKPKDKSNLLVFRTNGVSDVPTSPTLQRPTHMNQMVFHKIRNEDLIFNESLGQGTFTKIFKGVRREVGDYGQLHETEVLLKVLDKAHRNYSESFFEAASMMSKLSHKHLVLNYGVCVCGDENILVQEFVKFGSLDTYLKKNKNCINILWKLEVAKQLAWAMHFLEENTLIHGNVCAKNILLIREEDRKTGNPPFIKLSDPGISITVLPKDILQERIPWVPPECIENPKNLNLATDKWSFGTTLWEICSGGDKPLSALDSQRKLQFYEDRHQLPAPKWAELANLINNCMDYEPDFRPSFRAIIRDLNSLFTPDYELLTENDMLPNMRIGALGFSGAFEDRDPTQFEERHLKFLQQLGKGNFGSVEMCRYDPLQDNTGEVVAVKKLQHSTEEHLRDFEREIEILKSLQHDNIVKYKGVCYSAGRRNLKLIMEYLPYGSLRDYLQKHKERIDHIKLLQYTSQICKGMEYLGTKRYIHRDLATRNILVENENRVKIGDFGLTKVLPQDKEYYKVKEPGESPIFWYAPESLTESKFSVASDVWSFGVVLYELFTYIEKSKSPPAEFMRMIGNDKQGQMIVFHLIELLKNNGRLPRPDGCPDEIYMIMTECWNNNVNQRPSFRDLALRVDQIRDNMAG
Chain of MERTK (Q12866 whole entry, looked up): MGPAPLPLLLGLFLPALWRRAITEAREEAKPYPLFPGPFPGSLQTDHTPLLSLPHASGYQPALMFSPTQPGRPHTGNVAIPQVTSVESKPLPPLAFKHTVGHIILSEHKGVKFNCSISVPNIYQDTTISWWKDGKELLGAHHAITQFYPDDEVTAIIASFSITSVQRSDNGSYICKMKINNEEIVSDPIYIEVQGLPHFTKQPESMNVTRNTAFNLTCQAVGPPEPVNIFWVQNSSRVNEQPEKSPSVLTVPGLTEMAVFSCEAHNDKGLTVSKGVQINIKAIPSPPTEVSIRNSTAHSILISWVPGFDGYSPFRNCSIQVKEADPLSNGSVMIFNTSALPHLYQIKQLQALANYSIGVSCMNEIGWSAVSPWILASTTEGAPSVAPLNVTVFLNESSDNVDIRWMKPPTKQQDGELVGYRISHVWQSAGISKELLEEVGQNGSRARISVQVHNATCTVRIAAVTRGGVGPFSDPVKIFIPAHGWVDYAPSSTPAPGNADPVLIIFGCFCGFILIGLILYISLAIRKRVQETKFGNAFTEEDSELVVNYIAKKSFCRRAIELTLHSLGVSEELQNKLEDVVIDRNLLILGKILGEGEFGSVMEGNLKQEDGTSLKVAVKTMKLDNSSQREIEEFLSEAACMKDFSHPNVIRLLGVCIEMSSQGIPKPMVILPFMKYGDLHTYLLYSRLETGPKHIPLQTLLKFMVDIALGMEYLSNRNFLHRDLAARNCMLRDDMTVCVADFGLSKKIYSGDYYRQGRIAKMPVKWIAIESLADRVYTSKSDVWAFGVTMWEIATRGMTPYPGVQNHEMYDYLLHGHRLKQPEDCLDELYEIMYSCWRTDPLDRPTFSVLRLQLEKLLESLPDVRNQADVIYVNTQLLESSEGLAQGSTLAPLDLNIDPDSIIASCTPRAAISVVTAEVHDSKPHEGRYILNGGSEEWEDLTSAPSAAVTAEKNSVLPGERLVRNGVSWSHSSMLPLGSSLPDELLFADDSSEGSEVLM
Chain of Fyn (P06241 whole entry, looked up): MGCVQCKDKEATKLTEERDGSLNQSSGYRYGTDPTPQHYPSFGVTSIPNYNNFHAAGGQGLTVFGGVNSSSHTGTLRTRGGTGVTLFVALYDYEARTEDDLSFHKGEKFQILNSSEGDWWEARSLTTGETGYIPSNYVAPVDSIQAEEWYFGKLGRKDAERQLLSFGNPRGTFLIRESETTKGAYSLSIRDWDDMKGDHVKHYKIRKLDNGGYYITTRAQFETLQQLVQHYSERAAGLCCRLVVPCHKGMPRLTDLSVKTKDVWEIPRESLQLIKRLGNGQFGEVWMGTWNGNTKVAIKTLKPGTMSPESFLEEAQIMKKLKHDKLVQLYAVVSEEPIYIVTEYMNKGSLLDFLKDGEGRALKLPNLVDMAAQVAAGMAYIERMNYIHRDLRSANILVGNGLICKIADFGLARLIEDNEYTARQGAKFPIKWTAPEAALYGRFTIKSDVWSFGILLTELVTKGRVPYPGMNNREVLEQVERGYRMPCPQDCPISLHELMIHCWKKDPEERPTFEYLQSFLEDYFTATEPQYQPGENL
Chain of Hck (P08631 whole entry, looked up): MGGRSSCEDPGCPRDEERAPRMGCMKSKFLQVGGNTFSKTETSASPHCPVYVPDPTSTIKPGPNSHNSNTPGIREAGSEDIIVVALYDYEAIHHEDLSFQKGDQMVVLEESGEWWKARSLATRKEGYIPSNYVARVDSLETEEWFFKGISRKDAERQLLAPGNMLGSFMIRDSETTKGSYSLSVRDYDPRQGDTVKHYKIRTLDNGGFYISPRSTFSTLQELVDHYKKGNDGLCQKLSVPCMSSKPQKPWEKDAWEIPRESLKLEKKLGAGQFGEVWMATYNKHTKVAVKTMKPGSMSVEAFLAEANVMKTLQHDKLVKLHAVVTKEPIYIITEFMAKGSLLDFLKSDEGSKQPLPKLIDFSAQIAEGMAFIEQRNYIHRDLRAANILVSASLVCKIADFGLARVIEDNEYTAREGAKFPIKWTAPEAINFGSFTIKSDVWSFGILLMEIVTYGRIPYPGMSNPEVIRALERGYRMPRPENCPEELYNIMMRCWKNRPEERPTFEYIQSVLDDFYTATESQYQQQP
Chain of FGFR3 (P22607 whole entry, looked up): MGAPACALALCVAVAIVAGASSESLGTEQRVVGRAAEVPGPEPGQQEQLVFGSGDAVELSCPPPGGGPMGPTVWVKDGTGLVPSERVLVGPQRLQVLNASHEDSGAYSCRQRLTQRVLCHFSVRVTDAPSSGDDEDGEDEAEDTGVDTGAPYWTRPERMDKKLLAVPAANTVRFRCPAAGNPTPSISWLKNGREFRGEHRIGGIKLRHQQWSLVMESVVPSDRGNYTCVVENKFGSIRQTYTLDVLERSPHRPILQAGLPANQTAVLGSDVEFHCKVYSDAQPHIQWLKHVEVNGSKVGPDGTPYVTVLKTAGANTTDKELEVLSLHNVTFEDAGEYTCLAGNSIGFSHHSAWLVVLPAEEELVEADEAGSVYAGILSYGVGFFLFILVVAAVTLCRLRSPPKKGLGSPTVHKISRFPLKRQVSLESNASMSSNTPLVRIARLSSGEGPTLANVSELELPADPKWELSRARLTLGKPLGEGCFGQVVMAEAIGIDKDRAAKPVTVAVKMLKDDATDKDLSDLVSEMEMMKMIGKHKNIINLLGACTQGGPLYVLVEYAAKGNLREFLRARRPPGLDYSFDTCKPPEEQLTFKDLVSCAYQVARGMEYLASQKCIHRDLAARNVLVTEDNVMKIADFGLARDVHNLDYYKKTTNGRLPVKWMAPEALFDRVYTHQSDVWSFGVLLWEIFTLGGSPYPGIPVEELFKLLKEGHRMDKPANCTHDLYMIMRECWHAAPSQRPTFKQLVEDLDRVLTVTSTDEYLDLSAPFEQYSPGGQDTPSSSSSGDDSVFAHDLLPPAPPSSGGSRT

Sequence | SH2 binding enrichment [1] | SH2 binding enrichment [2] | SH2 binding enrichment [3] | phosphorylation enrichment [4] | phosphorylation enrichment [5] | phosphorylation enrichment [6] | phosphorylation enrichment [7] | phosphorylation enrichment [8] | phosphorylation enrichment [9] | phosphorylation enrichment [10] | phosphorylation enrichment [11] | phosphorylation enrichment [12] | phosphorylation enrichment [13] | phosphorylation enrichment [14] | phosphorylation enrichment [15] | phosphorylation enrichment [16]
SVKVYYKKCWF [EPHA7_Y202_S207F] | 0.501 | 0.712 | 0.657 | 0.433 | 0.856 | 0.553 | 0.382 | 0.356 | 0.596 | 0.531 | 0.432 | 1.08 | 1.14 | 0.448 | 0.375 | 1.12
LLASRYDSPIN [ABLIM1_Y638] | 2.63 | 0.704 | 0.991 | 0.607 | 1.13 | 1.58 | 0.923 | 1.09 | 0.636 | 0.929 | 1.12 | 1.59 | 1.65 | 0.96 | 1.18 | 1.32
ESMLRYEVYGG [STOX1_Y607] | 0.929 | 0.819 | 0.554 | 0.523 | 0.744 | 0.758 | 0.712 | 0.506 | 0.702 | 0.685 | 0.528 | 1.3 | 1.42 | 0.905 | 0.666 | 1.29
EHTILYSNNST [KANSL1_Y223_T221I] | 0.691 | 0.845 | 0.71 | 0.732 | 0.581 | 0.456 | 0.43 | 0.5 | 0.468 | 0.454 | 0.461 | 0.488 | 0.662 | 0.547 | 0.437 | 0.715
QEIATYRRQLE [KRT14_Y415_L418Q] | 0.593 | 0.768 | 0.332 | 0.601 | 0.773 | 0.75 | 0.559 | 0.445 | 0.808 | 1.27 | 0.65 | 0.976 | 1.01 | 0.583 | 0.83 | 1.11
RIVEIYTRRLQ [GCH1_Y175_S176T] | 0.325 | 0.756 | 0.58 | 0.436 | 0.517 | 0.503 | 0.613 | 0.605 | 0.632 | 0.462 | 0.515 | 0.637 | 0.949 | 1.01 | 0.543 | 0.936
SSSAIYDNPNL [DCP1B_Y191] | 0.706 | 0.688 | 0.53 | 9.27 | 22.5 | 12.2 | 9.85 | 8.1 | 0.457 | 15.6 | 0.411 | 0.632 | 0.737 | 5.76 | 8.1 | 0.898
APQFTYTQGGQ [FLNA_Y1763_A1764T_YF] | 0.597 | 0.75 | 0.503 | 0.423 | 0.444 | 0.444 | 0.395 | 0.367 | 0.582 | 0.536 | 0.482 | 0.552 | 0.681 | 0.42 | 0.5 | 0.602
ARSHIYTFASC [MEFV_Y741] | 1.66 | 0.834 | 0.763 | 0.563 | 0.849 | 0.488 | 0.671 | 0.808 | 0.653 | 0.533 | 0.491 | 0.866 | 1 | 1.3 | 1.41 | 0.932
LADKPYTFEDY [FXN_Y118] | 0.446 | 0.758 | 0.588 | 0.832 | 1.55 | 0.736 | 0.945 | 2.31 | 1.14 | 1.04 | 0.955 | 1.92 | 1.74 | 6.91 | 3.63 | 2.03
ARVANYHRDGP [CAT_Y386_Q387H] | 0.49 | 0.776 | 0.769 | 0.372 | 0.457 | 0.309 | 0.36 | 0.385 | 0.394 | 0.378 | 0.519 | 0.491 | 0.514 | 0.395 | 0.44 | 0.523
LEQQKYTVTVD [IKBKB_Y199] | 0.567 | 0.804 | 0.616 | 0.674 | 0.634 | 0.566 | 0.726 | 0.71 | 1.06 | 0.746 | 0.647 | 0.954 | 1.98 | 0.593 | 0.706 | 1.21
LKFAIYFEARE [LAMA2_Y1258_YF] | 0.352 | 1.08 | 0.756 | 0.884 | 1.06 | 1.78 | 0.736 | 0.845 | 2.05 | 0.983 | 1.41 | 1.1 | 2.6 | 0.345 | 1.29 | 1.45
FLAVGYHKPYI [IDS_Y225_H229Y] | 1.51 | 0.98 | 1.14 | 0.554 | 1.16 | 0.591 | 0.399 | 0.441 | 0.512 | 0.441 | 0.446 | 1.02 | 1.16 | 0.348 | 0.46 | 0.654
RGDTVYTVNCM [KBTBD13_Y404_R408C] | 0.475 | 0.752 | 0.793 | 0.547 | 0.697 | 0.692 | 1.21 | 0.734 | 0.686 | 0.636 | 0.479 | 0.844 | 1.08 | 2.45 | 3.11 | 0.937
YSNKLYYQLEQ [PDPR_Y109] | 1.12 | 0.826 | 0.957 | 0.81 | 0.82 | 3.14 | 2.27 | 6.24 | 7.22 | 2.11 | 8.28 | 1.76 | 1.09 | 3.28 | 2.08 | 1.43
SEKIVYGHVDD [ACO2_Y71_L74V] | 0.556 | 0.903 | 1.59 | 0.466 | 0.677 | 0.41 | 0.479 | 0.383 | 0.529 | 0.469 | 0.471 | 0.738 | 0.805 | 0.649 | 0.515 | 0.715
SMAKYYASGIA [ACADSB_Y373_E376G] | 0.578 | 0.771 | 0.791 | 0.444 | 0.599 | 0.408 | 0.463 | 0.381 | 0.469 | 0.7 | 0.437 | 0.665 | 0.622 | 0.394 | 0.331 | 0.497
EKMWSYMKSAE [GRIA3_Y705] | 0.394 | 0.972 | 0.86 | 0.398 | 0.547 | 0.511 | 0.365 | 0.381 | 0.75 | 0.4 | 0.411 | 0.719 | 0.949 | 0.467 | 0.802 | 0.939
REVPVYTYSEP [FAM120B_Y368_D370Y] | 3.29 | 0.853 | 0.614 | 12.9 | 1.97 | 3.19 | 4.16 | 5.36 | 1.81 | 2.33 | 1.56 | 1.13 | 1.82 | 5.2 | 9.05 | 3.86

Further lines, with some results ahead:

SH2 binding enrichment [1] | SH2 binding enrichment [2] | SH2 binding enrichment [3] | Sequence | phosphorylation enrichment [4] | phosphorylation enrichment [5] | phosphorylation enrichment [6] | phosphorylation enrichment [7] | phosphorylation enrichment [8] | phosphorylation enrichment [9] | phosphorylation enrichment [10] | phosphorylation enrichment [11] | phosphorylation enrichment [12] | phosphorylation enrichment [13] | phosphorylation enrichment [14] | phosphorylation enrichment [15] | phosphorylation enrichment [16]
0.431 | 0.789 | 0.793 | SDVDLYQVRIA [PSMD9_Y70_T74I] | 0.756 | 0.579 | 0.594 | 4.07 | 0.463 | 0.583 | 0.497 | 0.598 | 1.04 | 0.892 | 2.13 | 1.86 | 0.92
1.36 | 1.54 | 1.53 | VIVRMYDYHVL [RPF2_Y109_G106V] | 4.25 | 0.746 | 2.24 | 0.587 | 2.39 | 2.12 | 3.26 | 3.25 | 0.975 | 1.04 | 0.498 | 0.499 | 1.2
0.615 | 1.14 | 0.628 | NTGDFYDLFGG [PTPN11_Y63_YF] | 1.82 | 0.773 | 0.587 | 3.44 | 2.97 | 0.709 | 0.632 | 0.582 | 0.985 | 1.06 | 4.45 | 4.89 | 1.23
20.4 | 1.01 | 0.626 | EADRKYEEVAH [TPM3_Y163_R168H] | 0.521 | 0.703 | 0.587 | 0.531 | 0.474 | 0.633 | 0.423 | 0.493 | 0.938 | 1.04 | 0.421 | 0.506 | 1
0.628 | 0.93 | 0.781 | KTGDFYDLFGG [PTPN11_Y63_N58K_YF] | 0.716 | 0.627 | 0.577 | 2.04 | 2.74 | 0.6 | 0.463 | 0.523 | 0.781 | 0.879 | 2.65 | 3.14 | 0.956
0.528 | 0.937 | 1.19 | VMTVDYSKTVV [SETD2_Y770] | 0.493 | 0.574 | 0.379 | 0.434 | 0.35 | 0.485 | 0.417 | 0.456 | 0.615 | 0.749 | 0.319 | 0.451 | 0.638
0.47 | 0.758 | 0.435 | DLDFTYIFPNI [PTEN_Y27_L25F_YF] | 0.627 | 0.8 | 0.996 | 1.16 | 1 | 2.27 | 0.618 | 2.87 | 1.83 | 1.33 | 2.15 | 4.4 | 3.5
1.02 | 0.655 | 1.07 | DGNTRYSTFSE [TKTL1_Y318_D315N] | 0.383 | 0.746 | 0.473 | 0.418 | 0.339 | 0.533 | 0.48 | 0.402 | 1.01 | 0.969 | 0.569 | 0.319 | 0.789
0.563 | 0.808 | 0.448 | HLDRSYSFSFS [PEAR1_Y890_R885H_YF] | 0.999 | 1.17 | 0.638 | 0.726 | 0.964 | 0.897 | 0.658 | 0.841 | 1.78 | 2.08 | 1.12 | 0.561 | 1.75
0.808 | 0.999 | 0.729 | HEKKAYSFCGT [RPS6KA3_Y226] | 0.989 | 0.725 | 0.703 | 1.49 | 0.725 | 1.68 | 1.18 | 1.51 | 0.695 | 1.8 | 0.65 | 1.09 | 1.73
1.2 | 0.982 | 0.7 | DLNATYCTIQG [U2SURP_Y634_R635C] | 1 | 0.78 | 7.15 | 7.17 | 2.36 | 0.954 | 5.72 | 1.06 | 0.845 | 1.07 | 5.32 | 9.64 | 1.31
0.724 | 0.91 | 0.723 | VMVCAYLLHRG [PTEN_Y138_I135V] | 0.558 | 1.18 | 0.614 | 0.584 | 0.481 | 0.78 | 0.538 | 0.502 | 1.23 | 1.3 | 0.558 | 0.478 | 1.13
0.841 | 0.925 | 0.615 | LRGEDCGFSVD [PRKCI_Y430_Y430C] | 0.886 | 1.97 | 2.18 | 0.987 | 1.25 | 1.41 | 1.14 | 0.847 | 2.49 | 2.77 | 1.48 | 0.631 | 1.94
